From patent publication US7893197B2, “Relaxin-3 chimeric polypeptides and their preparation and use” (Janssen Pharmaceutica N.V., priority 2005, dated 2011)

Key:
LGR8 = target: T1, LGR8 (Homo sapiens, UniProt Q8WXD0); experiment: Stimulation of β-galactosidase expression in SK-N-MC/β-gal cells; type: cell-based; conditions: highest concentration tested 1 μM
T1 construct: Human LGR8 cDNA containing the complete coding region was PCR amplified; expressed in transfected cells
Method: FIGS. 1A-1D show the activation of GPCR135 and GPCR142 by relaxin-3 B-chain, but not of LGR7 or LGR8. In FIG. 1A, SK-N-MC/β-gal cells expressing human GPCR135 were stimulated with relaxin-3, relaxin-3 B-chain, porcine relaxin, or INSL3 at various concentrations to inhibit the forskolin stimulated β-galactosidase expression. Forskolin was added to cells at a final concentration of 5 μM to stimulate the β-galactosidase expression. FIG. 1B depicts results for SK-N-MC/β-gal cells expressing human GPCR142 stimulated as in FIG. 1A. In FIG. 1C, SK-N-MC/β-gal cells expressing human LGR7 were stimulated with relaxin-3, relaxin-3 B-chain, porcine relaxin, and INSL3 at various concentrations to induce the β-galactosidase expression. The intracellular β-galactosidase activities were measured by a colorimetric assay using CRGP as the substrate and reading the absorbance at a wavelength of 570 nm. For FIG. 1D, SK-N-MC/β-gal cells expressing human LGR8 were stimulated as in FIG. 1C.
FIGS. 4A-4D illustrate the evaluation of the agonist activity of relaxin-3 chimeric polypeptides in biofunctional assays. Different chimeric polypeptides at various concentrations were added to SK-N-MC/β-gal cells expressing human GPCR135 (FIG. 4A) or GPCR142 (FIG. 4B) to inhibit forskolin stimulated β-galactosidase expression. Human relaxin-3 was used as the positive control. In parallel, chimeric polypeptides at various concentrations were added to SK-N-MC/β-gal cells expressing human LGR7 (FIG. 4C) and LGR8 (FIG. 4D) to stimulate β-galactosidase expression. Relaxin-3 and INSL3 were used as positive controls for LGR7 and LGR8, respectively. Intracellular β-galactosidase activity was measured by a colorimetric assay using CRGP as the substrate and reading the absorbance at wavelength of 570 nm. Data represent mean±SEM (n=3).
It has been shown that synthetic human relaxin-3 B-chain alone, but not A-chain, is an agonist for both GPCR135 and GPCR142 (Liu et al., 2003, Journal of Biological Chemistry, 278:50754-50764 and Liu et al., 2003, Journal of Biological Chemistry, 278:50765-50770). Those studies were repeated herein in SK-N-MC/β-gal cells, which harbor a β-galactosidase gene under the control of a cAMP responsive element (CRE) (Liu et al., 2001, Molecular Pharmacology, 59:420-426). In such SK-N-MC/β-gal cells, an increase in intracellular cAMP concentration leads to increased β-galactosidase gene expression, the activity of which is measured using Chlorophenol Red-β-D-Galactopyranoside (CPRG) as the substrate.
The inventive chimeric polypeptides were each independently tested for their ability to activate either GPCR135, GPCR142, LGR7, or LGR8, respectively, in separate pools of SK-N-MC/β-gal cells (see supra), each pool stably expressing one of the respective receptors, as indicated (FIG. 4).
Cells were seeded in 96-well tissue culture plate at a density of 30,000 cells/well in MEM plus 10% fetal serum, sodium pyruvate, penicillin, streptomycin, and G418 (400 mg/L). For cells expressing GPCR135 or GPCR142, forskolin was added to cells at a final concentration of 5 μM to stimulate intracellular cAMP accumulation. Different concentrations of each of the inventive polypeptides were then added to the cells to inhibit the forskolin induced cAMP accumulation. For cells expressing LGR7 or LGR8, intracellular cAMP was stimulated with each of the inventive chimeric polypeptides at various concentrations.
For all cells, after adding the chimeric polypeptides, cells were incubated for 6 additional hours in 37° C. incubator. The media was then aspirated and the β-galactosidase activities measured as previously described (Liu et al., 2001, Molecular Pharmacology, 59:420-426). The results were analyzed by Prism 3.0 software. […]

LGR7 = target: T2, LGR7 (Homo sapiens, UniProt Q9HBX9); experiment: Radioligand competition binding, [125I]-relaxin-3, live transfected COS-7 cells
T2 construct: Human LGR7 cDNA containing the complete coding region was PCR amplified; expressed in transfected cells
T2 sequence (Q9HBX9 1-757): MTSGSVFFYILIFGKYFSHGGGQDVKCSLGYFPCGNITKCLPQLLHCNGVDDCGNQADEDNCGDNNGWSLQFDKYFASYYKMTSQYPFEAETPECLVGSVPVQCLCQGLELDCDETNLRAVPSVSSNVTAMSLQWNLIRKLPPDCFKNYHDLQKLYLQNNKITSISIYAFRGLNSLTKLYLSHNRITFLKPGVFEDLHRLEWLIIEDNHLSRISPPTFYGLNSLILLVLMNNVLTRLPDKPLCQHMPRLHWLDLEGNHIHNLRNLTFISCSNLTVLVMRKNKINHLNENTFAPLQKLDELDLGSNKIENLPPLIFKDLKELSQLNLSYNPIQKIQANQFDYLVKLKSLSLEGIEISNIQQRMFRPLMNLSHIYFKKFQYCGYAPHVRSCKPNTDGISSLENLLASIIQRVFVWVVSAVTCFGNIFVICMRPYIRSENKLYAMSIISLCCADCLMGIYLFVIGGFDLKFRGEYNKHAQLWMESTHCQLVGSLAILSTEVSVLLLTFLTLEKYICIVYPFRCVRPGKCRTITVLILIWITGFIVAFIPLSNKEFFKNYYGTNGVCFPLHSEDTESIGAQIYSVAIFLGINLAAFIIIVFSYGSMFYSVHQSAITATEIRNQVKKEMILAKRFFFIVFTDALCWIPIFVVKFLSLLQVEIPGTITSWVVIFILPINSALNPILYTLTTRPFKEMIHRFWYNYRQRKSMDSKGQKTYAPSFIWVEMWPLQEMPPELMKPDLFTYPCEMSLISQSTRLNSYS
Method: For GPCR135, GPCR142, and LGR7, [^125I]-relaxin-3 was used as the radioligand at a final concentration of 100 pM. Different unlabeled peptides were used in the binding assay as the competitors. […] Different unlabeled peptides including relaxin-3 chimeras at various concentrations were added to the binding assay as the competitors. Data represent mean±SEM (n=3).
Radioligand binding assays for LGR7 and LGR8 were performed using live COS-7 cells transiently transfected with LGR7 or LGR8 expression plasmids in 15-cm culture dishes using LipofectAmine (Invitrogen). Two days after transfection, the transfected cells were detached from the 15-cm culture dished using phosphate buffered saline (PBS) plus 10 mM EDTA, seeded into 96-well opaque poly-D-lysine coated culture plates and used for radioligand binding assays. For LGR7, [^125I]-relaxin-3 was used as the tracer. […] [^125I]-labeled tracer was added in binding reactions at a final concentration of 100 pM in binding buffer containing DMEM plus 50 mM HEPES and 1% bovine serum albumin. Unlabeled relaxin-3 and relaxin-3 chimeric polypeptides were added at various concentrations to the binding assays as the competitors, as indicated (FIG. 3). The binding mixtures were incubated at room temperature for 1 hour. The unbound radioligand was removed by aspiration of the binding buffer. The cells were washed with PBS. The bound radioligand was counted in a scintillation counter (TopCount/NTX). The results were analyzed using Prism 3.0 program (Graphpad, San Diego, Calif.). The IC50 values represent the ligand concentrations that inhibit 50% of the maximum specific binding.

GPCR135 = target: T3, GPCR135 (Homo sapiens, UniProt Q9NSD7); experiment: Inhibition of forskolin stimulated β-galactosidase expression in SK-N-MC/β-gal cells; type: cell-based
T3 construct: expressed in transfected cells
T3 sequence (Q9NSD7 1-469): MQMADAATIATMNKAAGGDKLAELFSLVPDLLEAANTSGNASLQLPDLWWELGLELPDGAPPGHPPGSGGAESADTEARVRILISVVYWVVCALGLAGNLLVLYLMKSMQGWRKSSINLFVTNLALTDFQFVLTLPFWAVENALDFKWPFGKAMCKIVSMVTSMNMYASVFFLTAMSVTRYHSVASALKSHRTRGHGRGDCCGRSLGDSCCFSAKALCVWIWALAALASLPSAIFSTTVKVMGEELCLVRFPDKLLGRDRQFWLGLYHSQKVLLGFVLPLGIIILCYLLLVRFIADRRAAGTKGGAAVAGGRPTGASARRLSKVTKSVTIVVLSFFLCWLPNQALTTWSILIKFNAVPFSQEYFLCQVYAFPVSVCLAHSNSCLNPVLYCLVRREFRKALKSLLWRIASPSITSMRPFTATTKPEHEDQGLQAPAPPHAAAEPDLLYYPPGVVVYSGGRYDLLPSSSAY
Method: (§1) Different chimeric polypeptides at various concentrations were added to SK-N-MC/β-gal cells expressing human GPCR135 (FIG. 4A) or GPCR142 (FIG. 4B) to inhibit forskolin stimulated β-galactosidase expression. […] In parallel, chimeric polypeptides at various concentrations were added to SK-N-MC/β-gal cells expressing human LGR7 (FIG. 4C) and LGR8 (FIG. 4D) to stimulate β-galactosidase expression. Relaxin-3 and INSL3 were used as positive controls for LGR7 and LGR8, respectively. Intracellular β-galactosidase activity was measured by a colorimetric assay using CRGP as the substrate and reading the absorbance at wavelength of 570 nm. Data represent mean±SEM (n=3).

GPCR142 = target: T4, GPCR142 (Homo sapiens, UniProt Q8TDU9, L329S); experiment: as above; type: cell-based
T4 construct: expressed in transfected cells
T4 sequence (Q8TDU9 whole entry L329S): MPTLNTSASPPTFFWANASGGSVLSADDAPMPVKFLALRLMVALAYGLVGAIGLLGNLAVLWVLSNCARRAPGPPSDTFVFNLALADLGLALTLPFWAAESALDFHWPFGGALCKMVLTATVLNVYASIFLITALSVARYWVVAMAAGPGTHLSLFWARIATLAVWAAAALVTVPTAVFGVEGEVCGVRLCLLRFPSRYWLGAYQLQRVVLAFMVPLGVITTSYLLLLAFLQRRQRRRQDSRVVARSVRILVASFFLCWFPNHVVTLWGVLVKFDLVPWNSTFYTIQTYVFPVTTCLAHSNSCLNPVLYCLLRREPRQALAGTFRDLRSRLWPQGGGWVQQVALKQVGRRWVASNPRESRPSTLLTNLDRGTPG
Method: as §1

[1] = highest concentration tested 1 μM
[2] = inhibition of 5 μM forskolin stimulated β-galactosidase expression, mean ± SEM, n = 3

T1 sequence (Q8WXD0 whole entry): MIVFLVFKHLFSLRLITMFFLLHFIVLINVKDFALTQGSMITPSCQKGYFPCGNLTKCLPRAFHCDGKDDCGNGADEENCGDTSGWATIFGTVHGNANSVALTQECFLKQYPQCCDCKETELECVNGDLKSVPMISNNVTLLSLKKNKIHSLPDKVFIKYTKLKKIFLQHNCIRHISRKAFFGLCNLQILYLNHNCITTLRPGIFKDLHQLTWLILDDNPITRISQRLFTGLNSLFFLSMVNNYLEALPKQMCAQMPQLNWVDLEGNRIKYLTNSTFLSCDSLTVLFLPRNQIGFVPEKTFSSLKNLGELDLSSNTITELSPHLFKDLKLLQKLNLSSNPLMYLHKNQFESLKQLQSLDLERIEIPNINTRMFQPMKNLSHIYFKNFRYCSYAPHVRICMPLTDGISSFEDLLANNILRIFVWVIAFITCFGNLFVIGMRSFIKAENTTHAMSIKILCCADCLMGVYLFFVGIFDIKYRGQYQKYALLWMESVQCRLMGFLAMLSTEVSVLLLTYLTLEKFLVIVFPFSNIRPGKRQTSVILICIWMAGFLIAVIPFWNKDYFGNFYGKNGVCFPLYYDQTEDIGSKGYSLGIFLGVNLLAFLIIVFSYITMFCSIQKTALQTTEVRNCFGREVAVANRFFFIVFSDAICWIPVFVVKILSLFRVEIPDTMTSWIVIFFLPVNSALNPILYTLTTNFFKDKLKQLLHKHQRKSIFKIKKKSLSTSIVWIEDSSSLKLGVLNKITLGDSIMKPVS

R3/I4: chimeric polypeptide: human relaxin-3 B-chain and INSL4 A-chain; mature polypeptide SEQ ID NO:22 (RAAPYGVRLCGREFIRAVIFTCGGSRWFDPFCCEVICDDGTSVKLC; Human Relaxin-3/Insulin-like 4 chimeric mature polypeptide)
activation of LGR8, in words (LGR8): no activity
binding to LGR7, in words (LGR7; [1]): inactive
agonist activity at GPCR135, in words (GPCR135; [1]): stimulated GPCR135 or GPCR142 at the highest concentration (1 μM) tested only
agonist activity at GPCR142, in words (GPCR142; [1]): stimulated GPCR135 or GPCR142 at the highest concentration (1 μM) tested only

R3/I5: chimeric polypeptide: human relaxin-3 B-chain and INSL5 A-chain; mature polypeptide SEQ ID NO:23 (RAAPYGVRLCGREFIRAVIFTCGGSRWQDLQTLCCTDGCSMTDLSALC; Human Relaxin-3/Insulin-like 5 chimeric mature polypeptide)
activation of LGR8, in words (LGR8): inactive
EC50 to activate GPCR135 (GPCR135; [2]): low nanomolar range
EC50 to activate GPCR142 (GPCR142; [2]): low nanomolar range

R3/I6: chimeric polypeptide: human relaxin-3 B-chain and INSL6 A-chain; mature polypeptide SEQ ID NO:24 (RAAPYGVRLCGREFIRAVIFTCGGSRWGYSEKCCLTGCTKEELSIAC; Human Relaxin-3/Insulin-like 6 chimeric mature polypeptide)
activation of LGR8, in words (LGR8): inactive
affinity for LGR7 (LGR7; discussion): 10 to 15 nM
